Source: patent US20210388053A1
Values belong to the binder of their own block, whether it stands above or below them.

Experiments:
[1] = target: canine FcRn/B2M protein complex (canine FcRn ECD with C-terminal poly-His tag and canine Beta-2-Microglobulin) (canine); experiment: SPR Biacore 8K, pH 6.0, 25 C; Fc captured by SASA tag on BSA chip, FcRn/B2M 400 nM as analyte
[2] = target: canine FcRn/B2M protein complex (canine FcRn ECD with C-terminal poly-His tag and canine Beta-2-Microglobulin) (canine); experiment: SPR Biacore 8K, pH 6.0, 25 C; Fc captured by SASA tag on BSA chip, FcRn/B2M 400 nM as analyte; dissociation exceeded the detection limit
[3] = target: canine FcRn/B2M protein complex (canine FcRn ECD with C-terminal poly-His tag and canine Beta-2-Microglobulin) (canine); experiment: SPR Biacore T200, pH 6.0; biotinylated FcRn/B2M captured on streptavidin, antibody 2.5-160 nM as analyte, kinetic fit
[4] = target: canine FcRn/B2M protein complex (canine FcRn ECD with C-terminal poly-His tag and canine Beta-2-Microglobulin) (canine); experiment: SPR Biacore T200, pH 6.0; biotinylated FcRn/B2M captured on streptavidin, antibody 1.5625-100 nM as analyte, kinetic fit
[5] = target: canine FcRn/B2M protein complex (canine FcRn ECD with C-terminal poly-His tag and canine Beta-2-Microglobulin) (canine); experiment: SPR Biacore T200, pH 6.0; biotinylated FcRn/B2M captured on streptavidin, antibody 18.75-1200 nM, steady state analysis
[6] = target: canine FcRn/B2M protein complex (canine FcRn ECD with C-terminal poly-His tag and canine Beta-2-Microglobulin) (canine); experiment: SPR Biacore T200, pH 6.0; biotinylated FcRn/B2M captured on streptavidin, antibody 12.5-800 nM, steady state analysis

canine FcRn/B2M protein complex (canine FcRn ECD with C-terminal poly-His tag and canine Beta-2-Microglobulin) (canine), sequence (chain, as listed by the source limits assumed, form in doubt, chain 1 of 2): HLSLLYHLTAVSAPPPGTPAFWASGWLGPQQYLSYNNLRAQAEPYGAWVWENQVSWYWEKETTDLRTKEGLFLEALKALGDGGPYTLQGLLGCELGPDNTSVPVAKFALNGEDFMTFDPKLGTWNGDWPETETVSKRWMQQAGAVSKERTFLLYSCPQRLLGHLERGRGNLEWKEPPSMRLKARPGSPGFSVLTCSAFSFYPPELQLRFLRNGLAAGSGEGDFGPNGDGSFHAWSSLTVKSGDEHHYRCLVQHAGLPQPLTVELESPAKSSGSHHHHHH
canine FcRn/B2M protein complex (canine FcRn ECD with C-terminal poly-His tag and canine Beta-2-Microglobulin) (canine), sequence (b2m, as listed by the source limits assumed, form in doubt, chain 2 of 2): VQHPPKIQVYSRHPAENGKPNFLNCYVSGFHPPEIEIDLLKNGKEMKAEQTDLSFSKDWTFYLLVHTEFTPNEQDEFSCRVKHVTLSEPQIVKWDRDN

B2: variant canine IgG-B Fc polypeptide YYY (Leu24Tyr, Gln83Tyr, Asn208Tyr) (protein, not shown: small tags and cut ends)
chain: CPAPEMLGGPSVFIFPPKPKDTLYIARTPEVTCVVVDLDPEDPEVQISWFVDGKQMQTAKTQPREEQFNGTYRVVSVLPIGHYDWLKGKQFTCKVNNKALPSPIERTISKARGQAHQPSVYVLPPSREELSKNTVSLTCLIKDFFPPDIDVEWQSNGQQEPESKYRTTPPQLDEDGSYFLYSKLSVDKSRWQRGDTFICAVMHEALHYHYTQESLSHSPGK
- kon [1]: 262000 M⁻¹ s⁻¹
- Kd [2]: 0.000713 nM
- koff [2]: 1.87e-07 s⁻¹

B3: caninized anti-canine IL31 clone M14 antibody with Y0Y variant canine IgG-B Fc polypeptide (antibody)
heavy: EVQLVESGPSLVKPGGSLRLTCSVTGDSITSGYWNWIRKFPGNKLEYMGYISYSGITDYNPSLKSRITISRDTSKNQYYLQLNSVTTEDTATYYCARYGNYGYAMDYWGQGTLVTVSSASTTAPSVFPLAPSCGSTSGSTVALACLVSGYFPEPVTVSWNSGSLTSGVHTFPSVLQSSGLYSLSSMVTVPSSRWPSETFTCNVAHPASKTKVDKPVPKRENGRVPRPPDCPKCPAPEMLGGPSVFIFPPKPKDTLYIARTPEVTCVVVDLDPEDPEVQISWFVDGKQMQTAKTQPREEQFNGTYRVVSVLPIGHQDWLKGKQFTCKVNNKALPSPIERTISKARGQAHQPSVYVLPPSREELSKNTVSLTCLIKDFFPPDIDVEWQSNGQQEPESKYRTTPPQLDEDGSYFLYSKLSVDKSRWQRGDTFICAVMHEALHYHYTQESLSHSPGK
light: DIVMTQSPASLSVSLGQRATISCRASESVDTYGNSFMHWYQQKPGQSPKLLIYRASNLESGIPARFGGSGSGTDFTLTIDPVQADDVATYYCQQSYEDPWTFGGGTKLEIKRNDAQPAVYLFQPSPDQLHTGSASVVCLLNSFYPKDINVKWKVDGVIQDTGIQESVTEQDKDSTYSLSSTLTMSSTEYLSHELYSCEITHKSLPSTLIKSFQRSECQRVD
- Kd [3]: 15.6 nM
- koff [3]: 0.00262 s⁻¹
- kon [3]: 168000 M⁻¹ s⁻¹

B5: caninized anti-canine IL31 clone M14 antibody with wild-type canine IgG-B Fc polypeptide (antibody)
heavy: EVQLVESGPSLVKPGGSLRLTCSVTGDSITSGYWNWIRKFPGNKLEYMGYISYSGITDYNPSLKSRITISRDTSKNQYYLQLNSVTTEDTATYYCARYGNYGYAMDYWGQGTLVTVSSASTTAPSVFPLAPSCGSTSGSTVALACLVSGYFPEPVTVSWNSGSLTSGVHTFPSVLQSSGLYSLSSMVTVPSSRWPSETFTCNVAHPASKTKVDKPVPKRENGRVPRPPDCPKCPAPEMLGGPSVFIFPPKPKDTLLIARTPEVTCVVVDLDPEDPEVQISWFVDGKQMQTAKTQPREEQFNGTYRVVSVLPIGHQDWLKGKQFTCKVNNKALPSPIERTISKARGQAHQPSVYVLPPSREELSKNTVSLTCLIKDFFPPDIDVEWQSNGQQEPESKYRTTPPQLDEDGSYFLYSKLSVDKSRWQRGDTFICAVMHEALHNHYTQESLSHSPGK
light: DIVMTQSPASLSVSLGQRATISCRASESVDTYGNSFMHWYQQKPGQSPKLLIYRASNLESGIPARFGGSGSGTDFTLTIDPVQADDVATYYCQQSYEDPWTFGGGTKLEIKRNDAQPAVYLFQPSPDQLHTGSASVVCLLNSFYPKDINVKWKVDGVIQDTGIQESVTEQDKDSTYSLSSTLTMSSTEYLSHELYSCEITHKSLPSTLIKSFQRSECQRVD
- Kd [5]: 410 nM

B6: caninized anti-canine IL31 clone M14 antibody with YTE variant canine IgG-B Fc polypeptide (antibody)
heavy: EVQLVESGPSLVKPGGSLRLTCSVTGDSITSGYWNWIRKFPGNKLEYMGYISYSGITDYNPSLKSRITISRDTSKNQYYLQLNSVTTEDTATYYCARYGNYGYAMDYWGQGTLVTVSSASTTAPSVFPLAPSCGSTSGSTVALACLVSGYFPEPVTVSWNSGSLTSGVHTFPSVLQSSGLYSLSSMVTVPSSRWPSETFTCNVAHPASKTKVDKPVPKRENGRVPRPPDCPKCPAPEMLGGPSVFIFPPKPKDTLYITREPEVTCVVVDLDPEDPEVQISWFVDGKQMQTAKTQPREEQFNGTYRVVSVLPIGHQDWLKGKQFTCKVNNKALPSPIERTISKARGQAHQPSVYVLPPSREELSKNTVSLTCLIKDFFPPDIDVEWQSNGQQEPESKYRTTPPQLDEDGSYFLYSKLSVDKSRWQRGDTFICAVMHEALHNHYTQESLSHSPGK
light: DIVMTQSPASLSVSLGQRATISCRASESVDTYGNSFMHWYQQKPGQSPKLLIYRASNLESGIPARFGGSGSGTDFTLTIDPVQADDVATYYCQQSYEDPWTFGGGTKLEIKRNDAQPAVYLFQPSPDQLHTGSASVVCLLNSFYPKDINVKWKVDGVIQDTGIQESVTEQDKDSTYSLSSTLTMSSTEYLSHELYSCEITHKSLPSTLIKSFQRSECQRVD
- Kd [6]: 231 nM

More lines, now with the values ahead:

- kon [1]: 271000 M⁻¹ s⁻¹
- Kd [2]: 0.000602 nM
- koff [2]: 1.63e-07 s⁻¹
B1: variant canine IgG-B Fc polypeptide YYF (Leu24Tyr, Gln83Tyr, Asn208Phe) (protein, not shown: small tags and cut ends)
chain: CPAPEMLGGPSVFIFPPKPKDTLYIARTPEVTCVVVDLDPEDPEVQISWFVDGKQMQTAKTQPREEQFNGTYRVVSVLPIGHYDWLKGKQFTCKVNNKALPSPIERTISKARGQAHQPSVYVLPPSREELSKNTVSLTCLIKDFFPPDIDVEWQSNGQQEPESKYRTTPPQLDEDGSYFLYSKLSVDKSRWQRGDTFICAVMHEALHFHYTQESLSHSPGK

- Kd [4]: 3.84 nM
- koff [4]: 0.000869 s⁻¹
- kon [4]: 227000 M⁻¹ s⁻¹
B4: caninized anti-canine IL31 clone M14 antibody with YYY variant canine IgG-B Fc polypeptide (antibody)
heavy: EVQLVESGPSLVKPGGSLRLTCSVTGDSITSGYWNWIRKFPGNKLEYMGYISYSGITDYNPSLKSRITISRDTSKNQYYLQLNSVTTEDTATYYCARYGNYGYAMDYWGQGTLVTVSSASTTAPSVFPLAPSCGSTSGSTVALACLVSGYFPEPVTVSWNSGSLTSGVHTFPSVLQSSGLYSLSSMVTVPSSRWPSETFTCNVAHPASKTKVDKPVPKRENGRVPRPPDCPKCPAPEMLGGPSVFIFPPKPKDTLYIARTPEVTCVVVDLDPEDPEVQISWFVDGKQMQTAKTQPREEQFNGTYRVVSVLPIGHYDWLKGKQFTCKVNNKALPSPIERTISKARGQAHQPSVYVLPPSREELSKNTVSLTCLIKDFFPPDIDVEWQSNGQQEPESKYRTTPPQLDEDGSYFLYSKLSVDKSRWQRGDTFICAVMHEALHYHYTQESLSHSPGK
light: DIVMTQSPASLSVSLGQRATISCRASESVDTYGNSFMHWYQQKPGQSPKLLIYRASNLESGIPARFGGSGSGTDFTLTIDPVQADDVATYYCQQSYEDPWTFGGGTKLEIKRNDAQPAVYLFQPSPDQLHTGSASVVCLLNSFYPKDINVKWKVDGVIQDTGIQESVTEQDKDSTYSLSSTLTMSSTEYLSHELYSCEITHKSLPSTLIKSFQRSECQRVD
